Measured values: article PMC9371924, “Exploration of DNA processing features unravels novel properties of ICE conjugation in Gram-positive bacteria”
Changes are numbered by the printed parent chain.

Assays:
[1] = target: T1, RelSt3 (MOBT relaxase) (Streptococcus thermophilus (ICESt3)) (UniProt Q935T7); assay: EMSA; details: PAGE EMSA: 20 mM Tris-HCl (pH not stated), 500 mM NaCl, 100 ug/ml salmon sperm DNA, 0.11 uM DNA, 15 min 37 C, gel run at 4 C; agarose EMSA: 400 ng DNA in …
T1 sequence: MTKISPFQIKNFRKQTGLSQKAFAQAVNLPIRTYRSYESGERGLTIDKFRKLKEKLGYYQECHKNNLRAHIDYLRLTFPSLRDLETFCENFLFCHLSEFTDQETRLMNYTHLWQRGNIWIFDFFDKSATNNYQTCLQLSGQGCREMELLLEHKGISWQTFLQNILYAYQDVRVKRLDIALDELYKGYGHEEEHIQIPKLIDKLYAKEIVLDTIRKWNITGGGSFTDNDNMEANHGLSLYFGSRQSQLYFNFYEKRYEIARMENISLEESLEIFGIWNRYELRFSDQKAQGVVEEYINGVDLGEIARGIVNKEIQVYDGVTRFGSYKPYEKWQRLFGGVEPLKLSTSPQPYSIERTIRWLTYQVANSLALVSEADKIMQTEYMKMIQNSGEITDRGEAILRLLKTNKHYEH

[2] = target: T2, RelSt3 (MOBT relaxase) (Streptococcus thermophilus (ICESt3)) (UniProt Q935T7); assay: EMSA; details: PAGE EMSA: 20 mM Tris-HCl (pH not stated), 500 mM NaCl, 100 ug/ml salmon sperm DNA, 0.11 uM DNA, 15 min 37 C, gel run at 4 C; agarose EMSA: 400 ng DNA in …; remark: listed apart in the source
T2 sequence: T1 sequence with N28S, E61G, A128V, E190D, N229D, N297T, S324A, R333E

[3] = target: T3, RelSt3 (MOBT relaxase) (Streptococcus thermophilus (ICESt3), UniProt Q935T7 1-410); assay: EMSA; apparent Kd; PAGE EMSA: 20 mM Tris-HCl (pH not stated), 500 mM NaCl, 100 ug/ml salmon sperm DNA, 0.11 uM DNA, 15 min 37 C, gel run at 4 C; agarose EMSA: 400 ng DNA in 20 ul, 15 min 37 C; details: protein: recombinant; tags: N-terminal 6xHis-TEV (pSKB3); label: 5' 6-FAM; blunt; possible cruciform
T3 sequence: T1 sequence with N28S, E61G, A128V, E190D, N229D, N297T, S324A, R333E

[4] = target: T4, RelSt3 R32A-R35A (Streptococcus thermophilus (ICESt3), UniProt Q935T7 1-410, R32A;R35A); assay: EMSA; up to 6.4 uM; PAGE EMSA: 20 mM Tris-HCl (pH not stated), 500 mM NaCl, 100 ug/ml salmon sperm DNA, 0.11 uM DNA, 15 min 37 C, gel run at 4 C; agarose EMSA: 400 ng DNA in 20 ul, 15 min 37 C; details: protein: recombinant; tags: N-terminal 6xHis-TEV (pSKB3); label: 5' 6-FAM; blunt; possible cruciform
T4 sequence: T1 sequence with N28S, R32A, R35A, E61G, A128V, E190D, N229D, N297T, S324A, R333E

[5] = target: T5, RelSt3(64-410), HTH deleted (Streptococcus thermophilus (ICESt3), UniProt Q935T7 64-410); assay: EMSA; up to 1.75 uM; PAGE EMSA: 20 mM Tris-HCl (pH not stated), 500 mM NaCl, 100 ug/ml salmon sperm DNA, 0.11 uM DNA, 15 min 37 C, gel run at 4 C; agarose EMSA: 400 ng DNA in 20 ul, 15 min 37 C; details: protein: recombinant; tags: N-terminal 6xHis-TEV (pSKB3); label: 5' 6-FAM; blunt; possible cruciform
T5 sequence: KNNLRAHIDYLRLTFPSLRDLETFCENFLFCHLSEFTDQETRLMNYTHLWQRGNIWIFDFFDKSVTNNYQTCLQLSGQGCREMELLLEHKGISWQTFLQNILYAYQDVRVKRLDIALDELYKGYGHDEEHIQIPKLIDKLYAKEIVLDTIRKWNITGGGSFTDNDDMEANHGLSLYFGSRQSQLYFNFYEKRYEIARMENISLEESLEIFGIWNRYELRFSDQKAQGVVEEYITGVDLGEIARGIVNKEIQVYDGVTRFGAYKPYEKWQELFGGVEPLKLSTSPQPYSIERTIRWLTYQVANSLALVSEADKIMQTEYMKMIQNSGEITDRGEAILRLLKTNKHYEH

[6] = target: T3, RelSt3 (MOBT relaxase); assay: EMSA; PAGE EMSA: 20 mM Tris-HCl (pH not stated), 500 mM NaCl, 100 ug/ml salmon sperm DNA, 0.11 uM DNA, 15 min 37 C, gel run at 4 C; agarose EMSA: 400 ng DNA in 20 ul, 15 min 37 C; details: protein: recombinant, tags: N-terminal 6xHis-TEV (pSKB3), label: 5' 6-FAM, blunt
[7] = target: T3, RelSt3 (MOBT relaxase); assay: EMSA; up to 6.4 uM; PAGE EMSA: 20 mM Tris-HCl (pH not stated), 500 mM NaCl, 100 ug/ml salmon sperm DNA, 0.11 uM DNA, 15 min 37 C, gel run at 4 C; agarose EMSA: 400 ng DNA in 20 ul, 15 min 37 C; details: protein: recombinant; tags: N-terminal 6xHis-TEV (pSKB3); label: 5' 6-FAM; blunt
[8] = target: T3, RelSt3 (MOBT relaxase); assay: EMSA; data not shown; PAGE EMSA: 20 mM Tris-HCl (pH not stated), 500 mM NaCl, 100 ug/ml salmon sperm DNA, 0.11 uM DNA, 15 min 37 C, gel run at 4 C; agarose EMSA: 400 ng DNA in 20 ul, 15 min 37 C; details: protein: recombinant; tags: N-terminal 6xHis-TEV (pSKB3); label: 5' 6-FAM; blunt

How did the binding [1] turn out when “AAAAAGAATTCTGTTCATCATGGGCTAGGACAAGGGCAAGGACAAGCCTGACCACAGGTCAGGCGCAGACCGTAGCCCGAAGTTCCTAGGCCATGATGAGACTTCAACCCCCGATTTCTAATAGGGGGGTTACATTTGGCCAAAGTGCCACGTCCACCCCTCCTCATTCCTTGTGGGAGTTGGGATTTCAAGATTTAGAAAGTGTGTCACTTTGGTCCAAAAAGTGTGTCACTTAGTCAAAAGGAGGTGTTCCCATGAATGACTAAAATAAGTCCCTTTCAGATCAAGGGCCCTTTTT (double strand) [oriT1 PCR product]” was run?
Its binding is “binds”.

With “GAGACTTCAACCCCCGATTTCTAATAGGGGGGTTACATTTTCAAGATTTAGAAAGTGTGTCACTTTGGTCCAAAAAGTGTGTCACTTAGTCAAAAGGAG / CTCCTTTTGACTAAGTGACACACTTTTTGGACCAAAGTGACACACTTTCTAAATCTTGA [ori50 (ss nic region + ds IR2)]” as the molecule, how does the Kd [2] read?
The Kd was 3200 nM.

B1: ori41 (ori41WT) dsDNA, full IR2 (dsDNA)
DNA 1: TCAAGATTTAGAAAGTGTGTCACTTTGGTCCAAAAAGTGTGTCACTTAGTCAAAAGGAG
DNA 2: CTCCTTTTGACTAAGTGACACACTTTTTGGACCAAAGTGACACACTTTCTAAATCTTGA
With B1 as the molecule, how does the Kd [3] read?
Its Kd is roughly 1600 nM.

Does B1 bind [4]?
Result: no binding

Does B1 bind [5]?
Result: no binding

B2: ori41M11 (IR2 replaced by IR of same length and GC%) (dsDNA)
DNA 1: TCAAGATTTAGACGATACGCTATCGTGGTCCAAACGATACGCTATCGAGTCAAAAGGAG
DNA 2: CTCCTTTTGACTCGATAGCGTATCGTTTGGACCACGATAGCGTATCGTCTAAATCTTGA
Does B2 bind ([6]; possible hairpin)?
Result: no binding

B3: ori46 (IR1, nic site) (dsDNA)
DNA 1: GAGACTTCAACCCCCGATTTCTAATAGGGGGGTTACAT
DNA 2: ATGTAACCCCCCTATTAGAAATCGGGGGTTGAAGTCTC
Does B3 bind [7]?
Result: no binding

B4: ori47 (IR1-IR2 spacer) (dsDNA)
DNA 1: ACATTTGGCCAAAGTGCCACGTCCACCCCTCCTCATTCCTTGTGGGAGTTGGGATTTCAAGATTTAGA
DNA 2: TCTAAATCTTGAAATCCCAACTCCCACAAGGAATGAGGAGGGGTGGACGTGGCACTTTGGCCAAATGT
Does B4 bind [8]?
Result: no binding

B5: non-specific dsDNA (dsDNA)
DNA 1: CTTACCGATAAGAACTTACCGCTCCTATGAATCTGGGGAAAGAGGTCTGACCATTGACAAGTTTCGAAAACTCAAAGAAAAGC
DNA 2: GCTTTTCTTTGAGTTTTCGAAACTTGTCAATGGTCAGACCTCTTTCCCCAGATTCATAGGAGCGGTAAGTTCTTATCGGTAAG
Does B5 bind [7]?
Result: no binding

B6: ori41M5 (IR2a mutated) (dsDNA)
DNA 1: TCAAGATTTAGACGATACGCTGACGTGGTCCAAAAAGTGTGTCACTTAGTCAAAAGGAG
DNA 2: CTCCTTTTGACTAAGTGACACACTTTTTGGACCACGTCAGCGTATCGTCTAAATCTTGA
Does B6 bind [6]?
Result: no binding

B7: ori41M6 (IR2b mutated) (dsDNA)
DNA 1: TCAAGATTTAGAAAGTGTGTCACTTTGGTCCAAACGATACGCTGACGAGTCAAAAGGAG
DNA 2: CTCCTTTTGACTCGTCAGCGTATCGTTTGGACCAAAGTGACACACTTTCTAAATCTTGA
Does B7 bind [6]?
Result: no binding
